Substitutions are numbered along the chain they refer to.

In test [1] the target is T1, recombinant cynomolgus monkey (Macaca fascicularis) IL-2 (cynomolgus monkey (Macaca fascicularis), UniProt Q29615 21-154).
T1 construct: also called cyno IL-2; cynomolgus monkey IL-2
Put plainly: SPR, IgG captured, cyno IL-2 1-100 nM; 1:1 Langmuir fit or steady-state affinity. Here is the method:
(§1) Experiments were performed at 25° C. using a 30 μL/minute flow rate in 0.01 M HEPES pH 7.4, 0.15 M NaCl and 0.005% v/v surfactant P20 (HBS-P) buffer. After each cycle, the chip surface was regenerated with 3 M MgCl₂ and new antibody captured. […] Data were analyzed using the Biacore T200 Evaluation software, the signal from the adjacent control flow cell with only the capture antibody immobilized was background subtracted along with buffer only injections for each antibody. A 1:1 Langmuir binding model was used to fit all binding curves.
(§2) A 1:1 Langmuir binding model was used to fit binding curves or the steady-state affinity constant calculated from a concentration-response curve.

Test [2] has as its target T2, human IL-2 (recombinant IL-2, Humanzyme) (human, UniProt P60568 21-153).
T2 construct: It may include the signal peptide; also called hIL-2; interleukin-2
Put plainly: SPR (Biacore T200), IgG captured by anti-human IgG, IL-2 injected, 25 C, 1:1 Langmuir fit. The procedure:
as §1

For test [3], the target named is T2, human IL-2 (recombinant IL-2, Humanzyme). Put plainly: SPR as in Example 1 (value as in Table 3). The procedure:
as §1

Test [4] concerns the target T1, recombinant cynomolgus monkey (Macaca …). Put plainly: SPR, IgG captured, cyno IL-2 1-100 nM; concentration-response insufficient to calculate the affinity. The procedure:
as §1, §2

Test [5] has as its target T2, human IL-2 (recombinant IL-2, Humanzyme). Put plainly: SPR as in Example 1 (IgG captured, IL-2 injected). The procedure:
as §1

Test [6] has the same target. The test is described as follows: SPR as in Example 1 (value as in Table 4). Here is the method:
as §1

For test [7] the target is unchanged. The test is described as follows: SPR as in Example 1; reference is parental F5.1.11. Here is the method:
as §1

Test [8] shares this target. The test is described as follows: method not stated in the sentence (presumably SPR as in Example 1).
Another test has as its target IL-2/F5.1.11 Fab complex (human, UniProt P60568 21-153). The test is described as follows: SPR (Biacore T200), equilibrium analysis, 1-500 nM IL-2 pre-complexed with excess Fab over biotinylated IL-2Rα. The procedure:
Experiments were performed at 25° C. using a 10 μL/minute flow rate in 10 mM HEPES (pH7.4), 150 mM NaCl and 0.005% v/v Surfactant P20 buffer. […] Data was background subtracted using the adjacent control flow cell and buffer only injections. The affinity of the interaction was calculated from concentration-response relationship at equilibrium.

Another test deals with T3, d1C7/IL-2 complex (human, UniProt P60568 21-153).
T3 construct: also called clone d1C7/IL-2 complex
Put plainly: SPR (Biacore T200), complex injected over biotinylated receptor on a streptavidin chip. Here is the method: Experiments were performed at 25° C. using a 10 μL/minute flow rate in 10 mM HEPES (pH 7.4), 150 mM NaCl and 0.005% v/v Surfactant P20 buffer. […] Data was background subtracted using the adjacent control flow cell and buffer only injections.

T1 sequence (Q29615 21-154 limits assumed): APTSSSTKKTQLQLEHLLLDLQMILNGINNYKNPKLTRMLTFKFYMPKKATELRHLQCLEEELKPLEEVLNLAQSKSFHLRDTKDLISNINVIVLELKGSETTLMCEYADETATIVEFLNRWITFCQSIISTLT
T2 sequence (P60568 21-153 limits assumed): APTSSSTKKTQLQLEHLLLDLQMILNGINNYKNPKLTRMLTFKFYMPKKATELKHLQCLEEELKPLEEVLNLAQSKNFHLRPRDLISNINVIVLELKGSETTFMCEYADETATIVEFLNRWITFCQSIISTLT
IL-2/F5.1.11 Fab complex, sequence (P60568 21-153 limits assumed, one chain of several): as the sequence (P60568 21-153 limits assumed) above
T3 sequence (P60568 21-153 limits assumed, one chain of several): as the sequence (P60568 21-153 limits assumed) above

B1: d1C7 (antibody, V domains shown)
VH: QVQLVQSGAEVKKPGSSVKVSCKASGGTFSSYAISWVRQAPGQGLEWMGGIIPIFGTANYAQKFQGRVTITADESTSTAYMELSSLRSEDTAVYYCARVDRYYNWNYFLGSFDYWGQGTLVTVSS
VL: SYVLTQPPSVSVAPGKTARITCGGNNIRSKSVHWYQQKPGQAPVVVIYYDSDRPSGIPERISGSNSGNTATLTISRVEAGDEADYFCQVWDSSSDHHVFGGGTKLTVL
notes: Only the variable domains are tied to the clone; also called clone d1C7
Consider B1, for which the Kd in test [1] was no less than 108 nM. In addition, in test [2], the Kd came to 0.536 nM, the koff was determined as 0.000607 s⁻¹ and the on-rate constant (kon) was 1.13e+06 M⁻¹ s⁻¹. Further, the Kd in [3] was determined as 0.536 nM.

B2: F5.1.11 (antibody, V domains shown)
VH: QLQLQESGPGLVKPSQTLSLTCTVSGGSISSGGYYWSWIRQHPGKGLEWIGYIYYSGSTYYNPSLKSRVTISVDTSKNQFSLKLSSVTAADTAVYYCARTPTVTGDWFDPWGRGTLVTVSS
VL: NFMLTQPHSVSESPGKTVTISCTRSSGSIASNYVQWYQQRPGSSPTTVIYEDNQRPSGVPDRFSGSIDSSSNSASLTISGLKTEDEADYYCQSYDSSNVVFGGGTKLTVL
On to B2, for which the binding result in test [4] was “binds”. The equilibrium dissociation constant (Kd) in test [5] turned out to be 1.88 nM; in [2] it was 3.12 nM; in test [3], 3.12 nM. In addition, the values for the off-rate constant (koff) in test [5] and in [2] were 0.00711 s⁻¹ and 0.00688 s⁻¹, respectively. Also, the kon in [5] is 3.78e+06 M⁻¹ s⁻¹; in [2], 2.21e+06 M⁻¹ s⁻¹.

B3: F5.1.11.08 (antibody, V domains shown)
VH: B2 VH with Y55K, T59N, Y61W
VL: B2 VL with S93T, S97I, N98D, V100Y
B3: in [5], the dissociation constant Kd turned out to be 0.205 nM, the off-rate constant (koff) was found to be 0.000453 s⁻¹ and the kon was determined as 2.21e+06 M⁻¹ s⁻¹.

B4: F5.1.11.02 (antibody, V domains shown)
VH: B2 VH with Y55K, T59A, N62S
VL: B2 VL with S93T, S97I, N98D, V100Y
notes: also called F5111.2; 5.1.11.2
As to B4, the equilibrium dissociation constant (Kd) in [6] is 0.114 nM. Besides, the Kd in test [1] is roughly 211 nM. Moreover, in test [7], the “fold increase of apparent binding affinity over parental F5.1.11” value came to 16 fold. Further, in [5], the dissociation constant (Kd) amounted to 0.114 nM, the koff was 0.000574 s⁻¹ and the on-rate (kon) is 5.05e+06 M⁻¹ s⁻¹.

B5: F4.7.6 (antibody, V domains shown)
VH: B2 VH with Q1E, L2V, R113Q
VL: B2 VL with N98T
In the case of B5, in test [2], the dissociation constant Kd stood at 3.03 nM, the koff was found to be 0.00738 s⁻¹ and the association rate constant (kon) was 2.44e+06 M⁻¹ s⁻¹.

B6: F4.7.062 (antibody, V domains shown)
VH: B2 VH with L2V, R113Q
VL: B2 VL
As to B6, in test [2], the equilibrium dissociation constant (Kd) is 1.54 nM, the koff stood at 0.0058 s⁻¹ and the kon was found to be 3.77e+06 M⁻¹ s⁻¹.

B7: F5.1.11.04 (antibody, V domains shown)
VH: B2 VH with T59N, Y61W
VL: B2 VL with S96T, S97R, N98D
In the case of B7, in [5], the dissociation constant (Kd) was determined as 0.624 nM, the off-rate constant (koff) was determined as 0.000458 s⁻¹ and the kon is 734000 M⁻¹ s⁻¹.

B8: F5.1.9.5 (antibody, V domains shown)
VH: EVQLVESGPGLVKPSETLSLTCAVSGYSISSGYYWGWIRQPPGKGLEWIGLSYHTRSTYYDPSLKSRVTISVDTSKNQFSLKLSSVTAADTAVYYCAREAYSDRAFDIWGQGTMVTVSS
VL: B2 VL with V18I, N32D, T46S, E51A, G58E, K82M, S97N, N98I, V100I
For the molecule B8, in [8], the Kd was found to be 0.663 nM, the off-rate constant (koff) was determined as 0.000818 s⁻¹ and the kon is 1.23e+06 M⁻¹ s⁻¹.

B9: 16C3 (antibody, V domains shown)
VH: QVQLVQSGGGVVQPGRSLRLSCAASGFTFSNYAMNWVRQAPGKGLEWVTLISYDGSQKYYADSVKGRFTTSRDNSKNTLYLQMNSLRAEDTAVYYCARDSTTLGAFDVWGQGTMVTVSS
VL: SYELTQPPSLSVSPGQTATISCSGDAFPRKFAYWYQQKSGQAPVLVIYEDTRRPSGIPERFSGSSSGTMATLTISGAQVEDEADYFCYSTDTTGTHRVFGGGTKLTVL
As to B9, in [1], the Kd was found to be 0.516 nM. For the same molecule, in [2], the dissociation constant Kd was found to be 0.637 nM, the off-rate constant (koff) stood at 0.000619 s⁻¹ and the kon was determined as 989000 M⁻¹ s⁻¹. Further, the dissociation constant (Kd) in test [3] was 0.637 nM.

B10: recombinant IL-2Rα (receptor, UniProt P01589 22-213, looked up)
chain: ELCDDDPPEIPHATFKAMAYKEGTMLNCECKRGFRRIKSGSLYMLCTGNSSHSSWDNQCQCTSSATRNTTKQVTPQPEEQKERKTTEMQSPMQPVDQASLPGHCREPPPWENEATERIYHFVVGQMVYYQCVQGYRALHRGPAESVCKMTHGKTRWTQPQLICTGEMETSQFPGEEKPQASPEGRPESETSC
modifications: biotin labeled
notes: also called IL-2α; CD25
The molecule B10 came in with a Kd with IL-2/F5.1.11 Fab complex of 70.1 nM.

B11: recombinant IL-2Rβ (receptor, UniProt P14784 27-239, looked up)
chain: AVNGTSQFTCFYNSRANISCVWSQDGALQDTSCQVHAWPDRRRWNQTCELLPVSQASWACNLILGAPDSQKLTTVDIVTLRVLCREGVRWRVMAIQDFKPFENLRLMAPISLQVVHVETHRCNISWEISQASHYFERHLEFEARTLSPGHTWEEAPLLTLKQKQEWICLETLTPDTQYEFQVRVKPLQGEFTTWSPWSQPLAFRTKPAALGKD
modifications: biotin labeled
notes: also called CD122; IL2Rb
Consider B11, for which, in the test with d1C7/IL-2 complex, the binding result was “no binding”.

B12: F4.7.8 (antibody, V domains shown)
VH: not shown
VL: AIQLTQSPSSLSASVGDRVTITCQASQDIFNLLNWYRQKPGKAPDLLVYRASNLETGVPSRFSGSGSGTDFTFTISSLQPEDVGTYYCQQSANLPLTFGGGTKVEIK
notes: Only the variable domains are tied to the clone
For B12, the values for the equilibrium dissociation constant (Kd) in test [1], in [2] and in test [3] were 92.4 nM, 13.4 nM and 13.4 nM, respectively. In addition, in test [2], the dissociation rate constant (koff) was 0.0031 s⁻¹. The on-rate (kon) in [2] is 231000 M⁻¹ s⁻¹.

Source of the values: patent US20230340106A1 (published 2023).
